# The supplement of paper PMC9170038
# Test system: MS2 coat protein
# Test: apparent KD of MS2 coat protein; designed switch direction (-1 OFF switch, 1 ON switch): -1; higher = weaker reporter binding
# Outline: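 Designed RNA switches were transcribed on Illumina chips by stalled E. coli RNA polymerase and titrated with SNAP-549-labelled MS2 coat protein from 0.7 or 1.5 nM, doubling to 3 µM. Step length ran from 0.8–1.5 h at the lowest concentration to 10–20 min at the highest. The apparent KD is the median over clusters for each design, from curve-fitted normalised cluster fluorescence.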
# [1] = input ligand: microRNA oligo, concentration not stated
# [2] = Eterna round: R95, input ligand: FMN 200 uM
# [3] = Eterna round: R95, input ligand: microRNA oligo, concentration not stated
# [4] = Eterna round: R95, input ligand: none
Sequence,apparent KD of MS2 coat protein (input ligand: FMN 200 uM) [nM],apparent KD of MS2 coat protein (input ligand: none) [nM],apparent KD of MS2 coat protein [1] [nM],apparent KD of MS2 coat protein [2] [nM],apparent KD of MS2 coat protein [3] [nM],apparent KD of MS2 coat protein [4] [nM]
"GGGAAGAACCAACAAGUAAACAUGAGGAUCACCCAUGUAAACUUCAUGUGCACGCUUUGCGUGCAAGCUCGUCUUAU [AK-miRNA-r3-14] (Eterna round: R97, puzzle: Sensor, turn-off variant 1)",19.2,18.6,–,–,–,–
"AAUAAUUGUGACUUGGGUGACAUGAGGAUCACCCAUGUCACAAGCUUGUUGCUCGUCUUAUAAUUAACCCAUGUCAC [LRO Sensor-off var1-25 mod of Stov1-13-A1 by Brourd] (Eterna round: R97, puzzle: Sensor, turn-off variant 1)",48.1,40.9,–,–,–,–
"AUAGUAGAAGUGAGGAUAUCGUAGAUUUUAGGAAACGAGAAGGCACAUGAGGAUCACCCAUGUAAGAUGGAGGU [JR_BMOE4_Sub051] (Eterna round: R96, puzzle: Brourd's mod of Exclusion 4)",380,132,126,–,–,–
"AGUACUAUCACGAAAGUGAUAGUACAAAAAGCAAGUGAAACAUGAGGAUCACCCAUGUCCUCAUUUGCUCGUCUUAU [Identical to 94% Sensor v2, turnoff variant 2] (puzzle: Sensor v3, turn-off variant 2)",–,–,–,16.8,476,12.7
GGAAAACAUGAGGAUCACCCAUGUAAGGAUAUGCAAAAGGAUAUAGAAGGAAAAAAAAGCAGAAGGUACAAAGG [salish99-ex1_r3_094] (puzzle: Exclusion 1),–,–,–,132,36.3,32.8
AGCGGCCGAGGAUAUACAAUCCUCCUGGCAGCCUGUCUGCCACAUGAGGAUCACCCAUGUAGAAGGCGGACCGC [Xelezabi] (puzzle: Exclusion 2),–,–,–,–,128,–
"ACCAAGUCAGGAUAUCCAGUUAGCCUUCGAGGCUGGGAAUAGGAGAAGGGACAUGAGGAUCACCCAUGUGGGCC [Eternabot (L2) Solution 78] (Eterna round: R97, puzzle: Exclusion 4)",215,54.4,–,–,–,–
"CCUAUGUUAGGAUAUUGCUCUCAGCCGUAGGAGGACAUGACCGAGAAGGAACAUGAGGAUCACCCAUGUGUAUU [Eternabot (L2) Solution 53] (Eterna round: R97, puzzle: Exclusion 4)",17.4,24,–,–,–,–
AAAUUAAGUGUGAGGAUAUGCUGGUCCAUAGAUCAGCAGAAGGCACAUGAGGAUCACCCAUGUAAUAUAUUUAA [Mat - Exclusion 4 - JL Mod - D51] (puzzle: Brourd's mod of Exclusion 4),–,–,–,134,29.4,23
"UUUAAUUGUCAGAUGGGUGACAUGAGGAUCACCCAUGUCACAAGCUUUUUGUUCGUCUUAUAAUUAACCCAUCUGAC [Stov1/11-B1] (Eterna round: R97, puzzle: Sensor, turn-off variant 1)",14,13.8,–,–,–,–
"GAGUGCUGAGGAUAUACAUGAGGAUCACCCAUGUGCUUCAGCUAGGAGACUAGCAUUGGUAGAAGGCAGUACUC [Mod of lroppy - Jieux - Exclusion 3] (Eterna round: R97, puzzle: Exclusion 3)",76.8,12.4,–,–,–,–
"GUGAGAUAGUUAGUGGACGACAUGAGGAUCACCCAUGUGAGGGAAAUGUUGAGGAGAAAGCUUUUUGCUCGUCUUUA [JR_SV3TOV1_Sub036] (puzzle: Sensor v3, turn-off variant 1)",–,–,–,90.8,87.4,119
"UAAUUAAAUGUAAGGAUAUGGCAAUGCGGUGGCAGUUAGAAGGUACAUGAGGAUCACCCAUGUGUGUAUCGUGA [Eternabot (L1) Solution 93] (Eterna round: R97, puzzle: Brourd's mod of Exclusion 4)",233,248,–,–,–,–
ACAUUGUGAGGAUAUCCGAAGAAGGUCCGGAAGGUUCGGGUGGAGAAGGCACAUGAGGAUCACCCAUGUGUGGG [Excls4-VIII] (puzzle: Exclusion 4),–,–,–,–,39.3,–
"UUAAAUCAUGUAGGAUAUGCGUGGCGAAGCUAUGCAGAAGGACAUGAGGAUCACCCAUGUGCUUGCGUCCGCGUACGGAUGCUA [JL ENG1 1.22] (Eterna round: R96, puzzle: Exclusion NG 1)",195,104,94,–,–,–
"AGGUGUCUCUGGAAACAUGAGGAUCACCCAUGUUGAGUUAGCGAGGAUAUCGGUAACCAUUGUUAUGAGAAGGCGCAAACCAGA [Ex NG3 #39] (Eterna round: R96, puzzle: Exclusion NG 3)",14.8,25.4,18.3,–,–,–
"AAGUCGACGGUGAGGAUAUAGGUUGAACGACAGAUCUAGAAGGUACAUGAGGAUCACCCAUGUGGGUAACGUCG [Brourd's EX4 #36] (Eterna round: R97, puzzle: Brourd's mod of Exclusion 4)",54.8,98.2,–,–,–,–

Sequence,apparent KD of MS2 coat protein (input ligand: FMN 200 uM) [nM],apparent KD of MS2 coat protein (input ligand: none) [nM],apparent KD of MS2 coat protein [1] [nM],apparent KD of MS2 coat protein [2] [nM],apparent KD of MS2 coat protein [3] [nM],apparent KD of MS2 coat protein [4] [nM]
CUCGUGUCGGAGGAUAUCCAGCGCGAAAAUAAAGGAGAAGGCCGCACAUGAGGAUCACCCAUGUAACAUGGUCC [Onbier] (puzzle: Exclusion 6),–,–,–,–,44.8,–
"AGAGAAUAGGUAGGAUAUCUUAAUAGAAAGAAUAGAGAAGGACCACAUGAGGAUCACCCAUGUGAAGUCUUGAGACUACAUGGU [Prohibition 31 - Jieux - Exclusion NG 1] (Eterna round: R96, puzzle: Exclusion NG 1)",–,–,15,–,–,–
GAAAAGGUAGGAUAUACGAAAAGAAAGGGUAGAGAAGAAACACAUGAGGAUCACCCAUGUAGAAGGACCAAAAG [salish99_ex2_r3_098] (puzzle: Exclusion 2),–,–,–,96.4,26.4,28.4
"GGCACACAUGUAGGAUAUCUGCACGUUUAGUGCAGAGAAGGACAUGAGGAUCACCCAUGUAAUUAAGAUCAAUUAUUAAGUGCC [ENG1/3-A2] (Eterna round: R96, puzzle: Exclusion NG 1)",564,58.3,48.6,–,–,–
CUGGUCCGAGGAUAUAUUAUGUGAAACAUGAGGAUCACCCAUGUUAUAUAAUGGAUGUAAAUAGAAGGCGGACUAG [Mat - Exclusion 5 - JL mod - D62] (puzzle: Exclusion 5),–,–,–,27.7,25.5,28.2
"ACAUGAGGAUCACCCAUGUGACAAUAAUGGCUGAUAUAGAAACAGGAUAUUCGUGAAUAUCUAACGAAGAAGGGUUAUGACUGG [Deportation 67 - Jieux - Exclusion NG 3] (Eterna round: R96, puzzle: Exclusion NG 3)",49,51.8,38.3,–,–,–
ACCUUACAUGAGGAUCACCCAUGUCAGGAUAUCUCGGGCGGCUGAGGACCAGCCGCCCAGAGAAGGGACGAGGA [Leleusarra] (puzzle: Exclusion 1),–,–,–,–,12.5,–
"UUUCAGCUAGGAUAUGCCCUGAUGCACAUGAGGAUCACCCAUGUCGGCUUGUGUAUGAGCGCAGAAGGAGCGAAAA [EX5 C.17] (Eterna round: R97, puzzle: Exclusion 5)",783,268,–,–,–,–
"UUUAUAAUAAGAUCAAUUAAUUAACAUGAGGAUCACCCAUGUGAGGAUAUCAGCUCGAUUAGAGCUGAGAAGGCACAAUAUAAG [ExNG3/17-B1] (Eterna round: R96, puzzle: Exclusion NG 3)",79.3,43.3,36.3,–,–,–
"UUGAUGUAAGGAUAUCGUGCAAGUUUCAAAAGAGGCUUGUGCGAGAAGGUACAUGAGGAUCACCCAUGUAGGUU [Omei Ex4 B8] (Eterna round: R97, puzzle: Exclusion 4)",113,31.7,–,–,–,–
"UUAUUAAAUGUAGGAUAUGCAUAUUAUUAUUAUGCAGAAGGACAUGAGGAUCACCCAUGUAUAUUAUUAUUAUAUAUUAUAUAU [Title] (Eterna round: R96, puzzle: Exclusion NG 1)",–,–,26.5,–,–,–
CCUCUGUUAGGAUAUCAAACACUAUCUGCUCCAGAGUUAAGUGAGAAGGGACAUGAGGAUCACCCAUGUAAAAU [Isreusraar] (puzzle: Exclusion 4),–,–,–,–,26.2,–
GCCAGAGCAGGAUAUUUAUAUUAUCACAUGAGGAUCACCCAUGUCCAGCGAAAGCUGGAGGGAGAAGGGCUCUGGC [Fiskers Ex 5 - 25] (puzzle: Exclusion 5),–,–,–,121,190,250
"CUAGCGAUUGUAGGAUAUCGGACUGUUUCAGUCUGAGAAGGACAUGAGGAUCACCCAUGUGAUGGAUCGUGAGAUCCACGCUAG [JL ENG1 3.80] (Eterna round: R96, puzzle: Exclusion NG 1)",195,27.9,25.7,–,–,–
"GGUAAAGGCCGAGGAUAUCGGAAAGGAAGUGUACGAGAAGGCGGCAAAAGAACAUGAGGAUCACCCAUGUGGGCCGAUCUUCCG [16th something] (Eterna round: R96, puzzle: Exclusion NG 1)",23.6,18,16.8,–,–,–
"CCACGACAUGAGGAUCACCCAUGUGAGGAUAUGACCUGAAAAGCGUGAGCAGUUUGUAUCAGAAGGCGCGUGGG [salish99_ex1_r4_066] (Eterna round: R97, puzzle: Exclusion 1)",54.4,67.4,–,–,–,–
"AGAAGUAGUAACCGAUCCUACAUGAGGAUCACCCAUGUAGCUAGACGUGCACGCGAAGCUCGUCAGACUACCAGAUG [salish99_TOv1_r3_023] (puzzle: Sensor v3, turn-off variant 1)",–,–,–,298,273,212
